Measurements published in patent US20240116999A1, “CONFORMATIONALLY CONSTRAINED GLUCAGON ANALOGUES AND THEIR USE IN GLUCAGON-SINGLE CHAIN INSULIN FUSION PROTEINS” (THE TRUSTEES OF INDIANA UNIVERSITY, priority 2021, published 2024).

Target: glucagon receptor (GCGR)
Assay: cell-based or functional assay

EC50, cell-based cyclic AMP (cAMP) activity assay: 1.04 nM
Substance: dasiglucagon (Zealand Pharma) (peptide)
